Here are results for 1 protein from paper PMC4756856 (Nucleic Acids Research, 2016).

This data set deals with the molecule itself. Description: SEC-MALS.

B1: TyrRSΔE2–4′ (TyrRSΔE2–4 splice variant of human tyrosyl-tRNA synthetase without the flexible linker aa343–360) (natural protein, UniProt P54577 1-528, looked up)
chain: MGDAPSPEEKLHLITRNLQALDEEYLKVDAQFGGIDQRKIFTFAEKYLPALGYSKRVHLMNPMVPGLTGSKMSSSEEESKIDLLDRKEDVKKKLKKAFCEPGNVENNGVLSFIKHVLFPLKSEFVILRDEKWGGNKTYTAYVDLEKDFAAEVVHPGDLKNSVEVALNKLLDPIREKFNTPALKKLASAAYPEEVIPSRLDIRVGKIITVEKHPDADSLYVEKIDVGEAEPRTVVSGLVQFVPKEELQDRLVVVLCNLKPQKMRGVESQGMLLCASIEGINRQVEPLDPPAGSAPGEHVFVKGYEKGQPDEELKPKKKVFEKLQADFKISEECIAQWKQTNFMTKLGSISCKSLKGGNIS
As to B1, the “stoichiometry N” value was 2.
